# Source: publication PMC6662822, “Rational drug-design approach supported with thermodynamic studies — a peptide leader for the efficient bi-substrate inhibitor of protein kinase CK2” (Scientific Reports, 2019)
# Where no end group is shown, it is not given here.
# Columns and labels:
# Details in all cases: both partners purified
# [1] = molecular target: T1, catalytic subunit of human protein kinase CK2 (human, UniProt P68400 1-391, NT-647 dye (NanoTemper Protein Labeling Kit RED), in the MST experiments only); experiment: other fluorescence titration; nanoDSF (Prometheus NT.48): 350 nm/330 nm fluorescence ratio at 25 °C (native protein) against peptide concentration; 2.5 μM hCK2α, peptide 300 nM-10 mM, 25 mM Tris-HCl pH 7, 0.5 M NaCl; single binding site model
# T1 construct: catalytic subunit (alpha) of human protein kinase CK2; The His tag is named only for the pull-down (immobilised on cobalt resin); also called hCK2α; CK2α
# [2] = molecular target: T1, catalytic subunit of human protein …; experiment: MST; hCK2α labelled with NT-647 dye, 50 nM; ligand 100 nM-10 mM; thermophoresis with temperature jump; global fit of three independent pseudo-titrations
# [3] = molecular target: T1, catalytic subunit of human protein …; experiment: MST; as a6, labelled hCK2α in the presence of TBBt (hCK2α/TBBt complex)
# [4] = molecular target: T1, catalytic subunit of human protein …; experiment: other fluorescence titration; nanoDSF as a3, but data at 75 °C: unfolded form of hCK2α
# [5] = molecular target: T1, catalytic subunit of human protein …; experiment: other fluorescence titration; nanoDSF as a3 (25 °C), hCK2α in the presence of TBBt (hCK2α/TBBt complex)
# T1 sequence (P68400 whole entry): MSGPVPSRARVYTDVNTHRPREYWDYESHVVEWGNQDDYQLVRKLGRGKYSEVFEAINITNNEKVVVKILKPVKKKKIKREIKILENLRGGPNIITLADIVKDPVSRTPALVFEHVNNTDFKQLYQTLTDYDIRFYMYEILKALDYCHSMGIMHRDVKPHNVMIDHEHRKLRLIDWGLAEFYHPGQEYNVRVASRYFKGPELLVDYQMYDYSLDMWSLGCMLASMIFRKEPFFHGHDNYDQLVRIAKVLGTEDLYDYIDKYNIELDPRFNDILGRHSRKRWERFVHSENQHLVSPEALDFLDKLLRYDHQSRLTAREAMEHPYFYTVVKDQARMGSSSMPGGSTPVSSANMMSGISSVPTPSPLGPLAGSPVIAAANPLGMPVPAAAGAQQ
Binder,Kd [1] [µM],Kd [2] [µM],Kd [3] [µM],Kd [4] [µM],Kd [5] [µM]
"EETEEE-NH2 (source: synthetic peptide (solid-phase synthesis, purified by HPLC); in the pull-down as a member of the synthetic library) [EETEEE-NH2]",960 ± 30,,,,
"KESEEE-NH2 (source: synthetic peptide (solid-phase synthesis, purified by HPLC)) [KESEEE-NH2]",350 ± 20,390 ± 210,360 ± 230,~1000,450 ± 20
"KETEEE-NH2 (source: synthetic peptide (solid-phase synthesis, purified by HPLC); in the pull-down as a member of the synthetic library) [KETEEE-NH2]",950 ± 50,,,,
"EESEEE-NH2 (source: synthetic peptide (solid-phase synthesis, purified by HPLC); in the pull-down as a member of the synthetic library) [EESEEE-NH2]",1580 ± 60,,,,
RRRDDDSDDD (The supplier is named in the methods of the kinase assay; also called CK2 substrate peptide; source: bought: Biaffin GmbH & Co KG),,2100 ± 700,,,
